Laboratory results reported in patent US20260226180A1 (BIOCYTOGEN PHARMACEUTICALS BEIJING, published 2026).

T1: human IL2RA expressed on CHO-S cells (CHO-S-hIL2RA cells) (human, UniProt P01589 22-272)
T1 sequence: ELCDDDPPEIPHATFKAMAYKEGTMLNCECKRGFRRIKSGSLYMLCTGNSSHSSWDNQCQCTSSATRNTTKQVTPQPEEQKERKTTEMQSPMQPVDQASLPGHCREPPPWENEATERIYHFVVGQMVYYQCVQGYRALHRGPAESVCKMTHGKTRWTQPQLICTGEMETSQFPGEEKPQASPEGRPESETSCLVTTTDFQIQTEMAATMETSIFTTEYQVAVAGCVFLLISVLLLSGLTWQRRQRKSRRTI

T2: His-tagged recombinant monkey (Cynomolgus monkey, Macaca fascicularis) IL2RA protein (cynoIL2RA-his, Sino … (Cynomolgus monkey (Macaca fascicularis), UniProt Q5MNY4 22-213 (rhesus entry)))
T2 construct: Bought protein; the soluble protein is most likely only an extracellular part of it; not shown: His tag
T2 chain: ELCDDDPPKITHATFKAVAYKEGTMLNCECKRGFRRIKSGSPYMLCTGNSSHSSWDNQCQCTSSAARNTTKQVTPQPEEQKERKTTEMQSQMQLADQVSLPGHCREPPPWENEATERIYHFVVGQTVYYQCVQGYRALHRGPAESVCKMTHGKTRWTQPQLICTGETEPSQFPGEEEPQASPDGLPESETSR

T3: His-tagged human IL2RA protein (hIL2RA-his, ACROBiosystems Inc., Cat #: ILA-H52H9) (human, UniProt P01589 22-213, limits assumed)
T3 construct: Bought protein; the soluble protein is most likely only an extracellular part of it; not shown: His tag
T3 sequence: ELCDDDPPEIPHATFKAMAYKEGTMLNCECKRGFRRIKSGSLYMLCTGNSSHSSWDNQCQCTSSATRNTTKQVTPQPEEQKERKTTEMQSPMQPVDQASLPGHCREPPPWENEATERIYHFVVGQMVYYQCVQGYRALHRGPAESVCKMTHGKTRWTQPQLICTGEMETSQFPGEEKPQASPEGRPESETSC

T4: monkey (Macaca fascicularis) IL2RA expressed on CHO-S cells (CHO-S-fasIL2RA cells) (monkey (Macaca fascicularis), UniProt Q5MNY4 22-272)
T4 chain: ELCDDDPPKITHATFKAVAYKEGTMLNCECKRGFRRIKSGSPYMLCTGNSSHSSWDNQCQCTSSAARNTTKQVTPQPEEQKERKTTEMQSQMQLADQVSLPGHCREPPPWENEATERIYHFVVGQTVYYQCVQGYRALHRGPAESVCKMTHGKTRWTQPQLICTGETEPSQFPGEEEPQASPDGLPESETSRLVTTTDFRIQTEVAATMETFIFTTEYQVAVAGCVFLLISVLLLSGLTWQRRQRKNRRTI

B1: Daclizumab analog (antibody, V domains shown)
VH: QVQLVQSGAEVKKPGSSVKVSCKASGYTFTSYRMHWVRQAPGQGLEWIGYINPSTGYTEYNQKFKDKATITADESTNTAYMELSSLRSEDTAVYVCARGGGVFDYWGQGTLVTVSS
VL: DIQMTQSPSTLSASVGDRVTITCSASSSISYMHWYQQKPGKAPKLLIYTTSNLASGVPARFSGSGSGTEFTLTISSLQPDDFATYYCHQRSTYPLTFGQGTKVEVK
notes: Daclizumab is described as a humanized monoclonal antibody
B2: RG6292 analog (antibody, V domains shown)
VH: QVQLVQSGAEVKKPGASVKVSCKASGYTFTSYYMHWVRQAPGQGLEWMGIINPSGGSTSYAQKFQGRVTMTRDTSTSTVYMELSSLRSEDTAVYYCARGGAEYIPAEYFQHWGQGTLVTVSS
VL: EIVMTQSPATLSLSPGERATLSCRASQSVSSYLAWYQQKPGQAPRLLIYDASNRATGIPARFSGSGSGTDFTLTISSLEPEDFAVYYCQQRPFLPTFGGGTKVEIK
notes: RG6292 is described as a human IgG1 monoclonal antibody
B3: anti-IL2RA antibody 14C2 (antibody, human IgG1, V domains shown)
VH: QVQLVQSGGGVVQPGRSLRLSCAASGFTFSTYGMHWVRQAPGKGLEWVAVISYDGSDKIYADSVKGRFTISRDNSKNTLFLQMNSLRAEDTAVYYCATGPMENYYYYNMDVWGLGTTVTVSS
VL: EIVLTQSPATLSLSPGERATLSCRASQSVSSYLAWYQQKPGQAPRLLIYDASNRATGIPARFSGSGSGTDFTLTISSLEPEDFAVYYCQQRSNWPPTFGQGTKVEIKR
B4: anti-IL2RA antibody 11D2 (antibody, human IgG1, V domains shown)
VH: QVQLVQSGGGVVQPGRSLRLSCAASGFTFTNYAIHWVRQAPGKGLEWVAVIWSDGDNKYYADSVKGRFTISRDNSKNTLYLQMNSLRAEDTAVYYCARTPWYCTSTNCYTGYYYYGMDVWGQGTTVTVSS
VL: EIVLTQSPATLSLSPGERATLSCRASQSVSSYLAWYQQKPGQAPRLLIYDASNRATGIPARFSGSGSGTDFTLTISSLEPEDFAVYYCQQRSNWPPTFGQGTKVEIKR
B5: anti-IL2RA antibody 7B5 (antibody, V domains shown)
VH: EVQLQQWGAGLLKPSETLSLTCAVYGGSFSGYYWNWIRQPPGKGLEWIGESDHSGSTHFNPSLKSRVTISLDTSKNQFSLKLNSVTAADTAVYFCARAPDYGDFDHWGQGILVTVSS
VL: DIQMTQSPDSLAVSLGERATINCRSSQSVLHSSTNKRYLAWYQQKPRQPPKLLIYWTSTRESGVPDRFSGSGSGTDFTLTISSLQAEDVAVYFCQQYYSTPYTFGQGTKLEIK
B6: anti-IL2RA antibody 11C12 (antibody, human IgG1, V domains shown)
VH: QVQLVQSGGGLVQPGGSLRLSCSASGLTFSSYGMHWVRQAPGKGLDYVSGITNNGGRTEYADSVKGRFTISRDNSKNTLYLQMSSLRTEDTAVYYCVKEDWNGQYYYYAMDVWGQGTTVTVSS
VL: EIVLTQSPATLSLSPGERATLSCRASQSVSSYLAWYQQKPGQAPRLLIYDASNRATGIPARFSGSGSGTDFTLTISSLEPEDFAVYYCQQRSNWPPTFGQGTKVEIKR
notes: also called 1IC12
B7: anti-IL2RA antibody 5D9 (antibody, V domains shown)
VH: EVQLVESGGGLVQPGGSLRLSCAASGFTVSSNYMSWVRQTPGKGLELVSFIYSGGITSYADSVRGRFTISRDNSKNTLYLQMNSLRAEDTAVYYCARDDYSNYFDYWGQGTLVTVSS
VL: DIQMTQSPSSVSASVGDRVTITCRASQGISNWLAWYQQKPGKAPKLLIFAASSLQSGVPSRFSGSGSGTDFTLTISSLQPEDFATYYCQQAKSFPITFGQGTRLEIK
notes: Variable regions were cloned onto a human IgG constant region; also called 5D9-IgG1
B8: anti-IL2RA antibody 11C3 (antibody, human IgG1, V domains shown)
VH: QVQLVQSGAEVKKPGASVKVSCKASGYTFNSYYIHWVRQAPGQGLEWLGIINPTGGRTIYAQKFQGRVTMTRDTSTTTVDMELSSLRSEDTAVYYCARVPGYCKDTSCQDFYYYYGMDVWGQGSTVTVSS
VL: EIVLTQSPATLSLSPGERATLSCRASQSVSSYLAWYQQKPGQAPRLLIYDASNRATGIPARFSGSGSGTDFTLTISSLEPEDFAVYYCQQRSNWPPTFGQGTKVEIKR
B9: anti-IL2RA antibody 13F9 (antibody, human IgG1, V domains shown)
VH: QVQLVQSGAEVKRPGASVKVSCKASGYTFTTYAIHWVRQAPGQRLEWMGWINADNGYTKYSQNFQGRVTITRDTSASTAYMDLSTLRSEDTALYYCARTPRYCTSTSCSTGYYYYGMDVWGQGTTVTVSS
VL: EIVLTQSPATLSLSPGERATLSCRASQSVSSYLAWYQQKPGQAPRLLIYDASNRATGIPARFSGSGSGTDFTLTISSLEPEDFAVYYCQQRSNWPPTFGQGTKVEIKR

Molecular target: T1, human IL2RA expressed on CHO-S cells …
Assay: flow cytometry blocking assay on CHO-S-hIL2RA cells; blocked ligand: biotinylated human IL-2 at 2.5 µg/mL, detected with APC streptavidin
Method: (§1) CHO-S-hIL2RA cells were seeded in a 96-well plate (cell density 2×10⁵ cells/well) and incubated at 37° C. overnight. […] The above 96-well plate was incubated at 4° C. for 20 minutes.
(§2) The mean fluorescence intensity (MFI) was determined. A fitting curve was obtained using Log(antibody concentration (μg/mL)) or antibody concentration (μg/mL) as the X-axis and Log(mean MFI) or MFI as the Y-axis.

**Q.** For B1, which “IC50 (read off the curve)” value is on record?
**A.** ~0.6 µg/mL

Molecular target: T1, human IL2RA expressed on CHO-S cells …
Assay: as above
Remark: another data set of the same source
Method: as §1, §2

**Q.** Which “IC50 (read off the curve)” value does the source give for B1 here?
**A.** ~4 µg/mL

Molecular target: T2, His-tagged recombinant monkey …
Assay: SPR (Biacore 8K), antibody captured on Protein A chip, His-tagged antigen as analyte; "-" means no binding
Method: (§3) Purified anti-IL2RA antibodies were diluted to 2 g/mL and then injected into the Biacore™ 8K biosensor at 10 L/min for about 50 seconds to achieve a desired protein density (e.g., about 150 response units (RU)). […] Dissociation was monitored for 400 seconds. The chip was regenerated after the last injection of each titration with glycine (pH 2.0, 30 L/min for 30 seconds).

**Q.** Does B2 bind?
**A.** no binding (tested: up to 200 nM antigen)

Molecular target: T3, His-tagged human IL2RA protein …
Assay: SPR (Biacore 8K), antibody captured on Protein A chip, His-tagged antigen as analyte, 1:1 fit;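 further: antibodies captured at about 150 RU, antigen injected as a titration series, dissociation phase recorded over 400 s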
Method: as §3

**Q.** With B3 as the binder, how does the Kd read?
**A.** 3.72 nM

**Q.** What about the koff of the same binder?
**A.** 0.000962 s⁻¹

**Q.** And the kon?
**A.** 258000 M⁻¹ s⁻¹

**Q.** Which Kd does the source give for B4 here?
**A.** 1.27 nM

**Q.** What about the koff of the same binder?
**A.** 0.000235 s⁻¹

**Q.** And the kon?
**A.** 185000 M⁻¹ s⁻¹

**Q.** What does the source list for B5?
**A.** Kd: 6.35 nM; koff: 0.0143 s⁻¹; kon: 2.25e+06 M⁻¹ s⁻¹

**Q.** What does the source list for B6?
**A.** Kd: 8.9 nM; koff: 0.00268 s⁻¹; kon: 301000 M⁻¹ s⁻¹

**Q.** What does the source list for B2?
**A.** Kd: 43.8 nM; koff: 0.00203 s⁻¹; kon: 46300 M⁻¹ s⁻¹

**Q.** Which Kd does the source give for B7 here?
**A.** 5.14 nM

**Q.** And the koff?
**A.** 0.00043 s⁻¹

**Q.** And the kon?
**A.** 83800 M⁻¹ s⁻¹

**Q.** B8 was tested. Which Kd did it give?
**A.** 0.266 nM

**Q.** What about the koff of the same binder?
**A.** 9.42e-05 s⁻¹

**Q.** And the kon?
**A.** 354000 M⁻¹ s⁻¹

**Q.** What does the source list for B9?
**A.** Kd: 0.655 nM; koff: 2.11e-05 s⁻¹; kon: 32300 M⁻¹ s⁻¹

Molecular target: T2, His-tagged recombinant monkey …
Assay: as above
Method: as §3

**Q.** How did the Kd turn out when B3 was run?
**A.** 53.1 nM

**Q.** What about the koff of the same binder?
**A.** 0.0116 s⁻¹

**Q.** And the kon?
**A.** 218000 M⁻¹ s⁻¹

**Q.** What does the source list for B4?
**A.** Kd: 2.53 nM; koff: 0.000901 s⁻¹; kon: 356000 M⁻¹ s⁻¹

**Q.** How did the Kd turn out when B5 was run?
**A.** 24.6 nM

**Q.** What about the koff of the same binder?
**A.** 0.0258 s⁻¹

**Q.** And the kon?
**A.** 1.05e+06 M⁻¹ s⁻¹

**Q.** With B6 as the binder, how does the Kd read?
**A.** 118 nM

**Q.** What about the koff of the same binder?
**A.** 0.0343 s⁻¹

**Q.** And the kon?
**A.** 291000 M⁻¹ s⁻¹

**Q.** With B7 as the binder, how does the Kd read?
**A.** 271 nM

**Q.** And the koff?
**A.** 0.0193 s⁻¹

**Q.** What about the kon of the same binder?
**A.** 71400 M⁻¹ s⁻¹

**Q.** For B8, which Kd is on record?
**A.** 0.528 nM

**Q.** And the koff?
**A.** 0.000166 s⁻¹

**Q.** What about the kon of the same binder?
**A.** 314000 M⁻¹ s⁻¹

**Q.** B9 was tested. Which Kd did it give?
**A.** 11.8 nM

**Q.** What about the koff of the same binder?
**A.** 0.000447 s⁻¹

**Q.** What about the kon of the same binder?
**A.** 37800 M⁻¹ s⁻¹

Molecular target: T1, human IL2RA expressed on CHO-S cells …
Assay: flow cytometry on CHO-S cells expressing the target, anti-human IgG Fc secondary
Method: (§4) CHO-S-hIL2RA cells or CHO-S-fasIL2RA cells were plated in a 96-well plate at a density of 2×10⁵ cells/well. Serially diluted purified anti-IL2RA antibodies (maximum concentration: 9 μg/mL, 2-fold dilutions, 11 gradients) were added to each well and were incubated at 4° C. for 30 minutes.
(§5) The cells were collected, and the mean fluorescence intensity (MFI) was determined. A fitting curve was obtained using Log(antibody concentration (μg/mL)) as the X-axis and mean MFI as the Y-axis.

**Q.** Which EC50 does the source give for B3 here?
**A.** 0.093 µg/mL

**Q.** With B4 as the binder, how does the EC50 read?
**A.** 0.052 µg/mL

**Q.** How did the EC50 turn out when B5 was run?
**A.** 0.411 µg/mL

**Q.** With B6 as the binder, how does the EC50 read?
**A.** 0.083 µg/mL

**Q.** B7 was tested. Which EC50 did it give?
**A.** 0.47 µg/mL

**Q.** How did the EC50 turn out when B8 was run?
**A.** 0.099 µg/mL

**Q.** B9 was tested. Which EC50 did it give?
**A.** 0.326 µg/mL

Molecular target: T4, monkey (Macaca fascicularis) IL2RA …
Assay: as above
Method: as §4, §5

**Q.** With B3 as the binder, how does the EC50 read?
**A.** 0.088 µg/mL

**Q.** For B4, which EC50 is on record?
**A.** 0.039 µg/mL

**Q.** B5 was tested. Which EC50 did it give?
**A.** 0.435 µg/mL

**Q.** For B6, which EC50 is on record?
**A.** 0.091 µg/mL

**Q.** Which EC50 does the source give for B7 here?
**A.** 0.466 µg/mL

**Q.** How did the EC50 turn out when B8 was run?
**A.** 0.111 µg/mL

**Q.** Which EC50 does the source give for B9 here?
**A.** 0.275 µg/mL
